From article PMC9943670, “The homeodomain of Oct4 is a dimeric binder of methylated CpG elements”

Tests used:
[1] = biological target: T1, Oct4 POUHD (mouse, UniProt P20263); experiment: EMSA; 50 nM DNA; homodimer more efficient than full POU; EMSA buffer composition not given; 1 h at RT; gels in 1x TG, 200 V, 4 C; probes annealed in 20 mM Tris-HCl pH 8.0, 50 mM MgCl2, 50 mM KCl; protein stock 10 mM HEPES pH 7.0, 100 mM NaCl, 10% glycerol, 0.5 mM TCEP; settings: protein: recombinant; tags: tag cleaved by TEV (leaves G); chain copies: 2; label: 5' Cy5 or FAM on forward strand; blunt
T1 sequence (P20263 other isoform, or with tags, fused parts or gaps): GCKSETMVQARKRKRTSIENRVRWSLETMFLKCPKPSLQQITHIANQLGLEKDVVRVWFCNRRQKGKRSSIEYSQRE

[2] = biological target: T2, Brn2 POUHD (mouse, UniProt P31360); experiment: EMSA; 50 nM DNA; dimer with strongly reduced cooperativity; EMSA buffer composition not given; 1 h at RT; gels in 1x TG, 200 V, 4 C; probes annealed in 20 mM Tris-HCl pH 8.0, 50 mM MgCl2, 50 mM KCl; protein stock 10 mM HEPES pH 7.0, 100 mM NaCl, 10% glycerol, 0.5 mM TCEP; settings: protein: recombinant, tags: tag cleaved by TEV (leaves G), blunt
T2 sequence: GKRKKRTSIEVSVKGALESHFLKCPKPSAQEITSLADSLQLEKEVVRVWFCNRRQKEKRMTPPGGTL

[3] = biological target: T3, Oct4 POU (mouse, UniProt P20263); experiment: EMSA (single-tube dual color); FAM-CpGpal with Cy5-MORE; dimerizes more effectively on CpGpal than Brn2 does; EMSA buffer composition not given; 1 h at RT; gels in 1x TG, 200 V, 4 C; probes annealed in 20 mM Tris-HCl pH 8.0, 50 mM MgCl2, 50 mM KCl; protein stock 10 mM HEPES pH 7.0, 100 mM NaCl, 10% glycerol, 0.5 mM TCEP; settings: protein: recombinant; Methods: TEV-cleaved tag; label: 5' Cy5 or FAM on forward strand; blunt
T3 sequence (P20263 other isoform, or with tags, fused parts or gaps): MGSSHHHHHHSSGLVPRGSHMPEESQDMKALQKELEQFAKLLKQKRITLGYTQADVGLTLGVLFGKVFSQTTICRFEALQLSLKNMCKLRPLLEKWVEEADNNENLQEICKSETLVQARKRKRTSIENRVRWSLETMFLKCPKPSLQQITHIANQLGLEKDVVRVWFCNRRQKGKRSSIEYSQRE

[4] = biological target: T4, Brn2 POU (mouse, UniProt P31360); experiment: X-ray crystallography; 1.89 A; homodimer; 0.2 M MgCl2, pH 5.0; EMSA buffer composition not given; 1 h at RT; gels in 1x TG, 200 V, 4 C; probes annealed in 20 mM Tris-HCl pH 8.0, 50 mM MgCl2, 50 mM KCl; protein stock 10 mM HEPES pH 7.0, 100 mM NaCl, 10% glycerol, 0.5 mM TCEP; settings: protein: recombinant; tags: tag cleaved by TEV (leaves G); blunt; self-complementary strand, 2 copies
T4 sequence: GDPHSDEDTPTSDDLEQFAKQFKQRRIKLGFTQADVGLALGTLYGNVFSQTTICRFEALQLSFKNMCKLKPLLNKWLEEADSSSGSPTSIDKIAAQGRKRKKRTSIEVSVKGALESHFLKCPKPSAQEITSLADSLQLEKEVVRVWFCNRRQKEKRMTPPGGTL

[5] = biological target: T3, Oct4 POU; experiment: EMSA; 50 nM DNA; homodimer, 5hmC no effect; EMSA buffer composition not given; 1 h at RT; gels in 1x TG, 200 V, 4 C; probes annealed in 20 mM Tris-HCl pH 8.0, 50 mM MgCl2, 50 mM KCl; protein stock 10 mM HEPES pH 7.0, 100 mM NaCl, 10% glycerol, 0.5 mM TCEP; settings: protein: recombinant; Methods: TEV-cleaved tag; label: 5' Cy5 on forward strand; blunt
[6] = biological target: T5, Brn2 POUS linker (mouse, UniProt P31360); experiment: EMSA; 50 nM DNA; EMSA buffer composition not given; 1 h at RT; gels in 1x TG, 200 V, 4 C; probes annealed in 20 mM Tris-HCl pH 8.0, 50 mM MgCl2, 50 mM KCl; protein stock 10 mM HEPES pH 7.0, 100 mM NaCl, 10% glycerol, 0.5 mM TCEP; settings: protein: recombinant; tags: tag cleaved by TEV (leaves G); label: 5' Cy5 on forward strand; blunt
T5 sequence: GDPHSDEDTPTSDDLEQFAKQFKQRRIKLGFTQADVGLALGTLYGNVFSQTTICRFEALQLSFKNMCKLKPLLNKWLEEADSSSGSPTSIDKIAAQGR

[7] = biological target: T2, Brn2 POUHD; experiment: EMSA; 50 nM DNA; high affinity, no dimer detectable; EMSA buffer composition not given; 1 h at RT; gels in 1x TG, 200 V, 4 C; probes annealed in 20 mM Tris-HCl pH 8.0, 50 mM MgCl2, 50 mM KCl; protein stock 10 mM HEPES pH 7.0, 100 mM NaCl, 10% glycerol, 0.5 mM TCEP; settings: protein: recombinant; tags: tag cleaved by TEV (leaves G); label: 5' Cy5 on forward strand; blunt
[8] = biological target: T1, Oct4 POUHD; experiment: EMSA; 50 nM DNA; high affinity, homodimer also forms; EMSA buffer composition not given; 1 h at RT; gels in 1x TG, 200 V, 4 C; probes annealed in 20 mM Tris-HCl pH 8.0, 50 mM MgCl2, 50 mM KCl; protein stock 10 mM HEPES pH 7.0, 100 mM NaCl, 10% glycerol, 0.5 mM TCEP; settings: protein: recombinant; tags: tag cleaved by TEV (leaves G); chain copies: 2; label: 5' Cy5 on forward strand; blunt
[9] = biological target: T3, Oct4 POU; experiment: EMSA; 1 nM DNA, 1-500 nM protein; nanomolar Kd, value only in figure; monomer; EMSA buffer composition not given; 1 h at RT; gels in 1x TG, 200 V, 4 C; probes annealed in 20 mM Tris-HCl pH 8.0, 50 mM MgCl2, 50 mM KCl; protein stock 10 mM HEPES pH 7.0, 100 mM NaCl, 10% glycerol, 0.5 mM TCEP; settings: protein: recombinant; Methods: TEV-cleaved tag; label: 5' Cy5 on forward strand; blunt
[10] = biological target: T4, Brn2 POU; experiment: EMSA; 1 nM DNA, 0.4-100 nM protein; nanomolar Kd, value only in figure; monomer; EMSA buffer composition not given; 1 h at RT; gels in 1x TG, 200 V, 4 C; probes annealed in 20 mM Tris-HCl pH 8.0, 50 mM MgCl2, 50 mM KCl; protein stock 10 mM HEPES pH 7.0, 100 mM NaCl, 10% glycerol, 0.5 mM TCEP; settings: protein: recombinant; tags: tag cleaved by TEV (leaves G); label: 5' Cy5 on forward strand; blunt
[11] = biological target: T4, Brn2 POU; experiment: EMSA (single-tube dual color); Cy5-MORE with FAM-CpGpal; preferred, dimer; EMSA buffer composition not given; 1 h at RT; gels in 1x TG, 200 V, 4 C; probes annealed in 20 mM Tris-HCl pH 8.0, 50 mM MgCl2, 50 mM KCl; protein stock 10 mM HEPES pH 7.0, 100 mM NaCl, 10% glycerol, 0.5 mM TCEP; settings: protein: recombinant; tags: tag cleaved by TEV (leaves G); label: 5' Cy5 on one strand; blunt; self-complementary strand, 2 copies
[12] = biological target: T1, Oct4 POUHD; experiment: EMSA; 50 nM DNA; homodimer, minor effect of methylation; EMSA buffer composition not given; 1 h at RT; gels in 1x TG, 200 V, 4 C; probes annealed in 20 mM Tris-HCl pH 8.0, 50 mM MgCl2, 50 mM KCl; protein stock 10 mM HEPES pH 7.0, 100 mM NaCl, 10% glycerol, 0.5 mM TCEP; settings: protein: recombinant; tags: tag cleaved by TEV (leaves G); chain copies: 2; label: 5' Cy5 on forward strand; blunt
[13] = biological target: T3, Oct4 POU; experiment: EMSA; 50 nM DNA, 25-800 nM protein; cooperative homodimer; EMSA buffer composition not given; 1 h at RT; gels in 1x TG, 200 V, 4 C; probes annealed in 20 mM Tris-HCl pH 8.0, 50 mM MgCl2, 50 mM KCl; protein stock 10 mM HEPES pH 7.0, 100 mM NaCl, 10% glycerol, 0.5 mM TCEP; settings: protein: recombinant; Methods: TEV-cleaved tag; label: 5' Cy5 on forward strand; blunt

B1: CpGpal fully methylated (dsDNA)
DNA 1: GCCGCCTTATGCGCATAAGCCGCCGC
DNA 2: GCGGCGGCTTATGCGCATAAGGCGGC
modifications: 5mC at the central CpG (ATG5mCGCAT), both strands
[1]
  binding result: binds
[2]; label: 5' Cy5 or FAM on forward strand
  binding result: binds
[3]
  binding result: binds

B2: MORE (crystal) (dsDNA)
DNA 1: TCCTCATGCATATGCATGAGGA
DNA 2: TCCTCATGCATATGCATGAGGA
[4]
  binding result: binds

B3: CpGpal 5hmC (dsDNA)
DNA 1: GCCGCCTTATGCGCATAAGCCGCCGC
DNA 2: GCGGCGGCTTATGCGCATAAGGCGGC
modifications: 5hmC at the central CpG; strands carrying the mark not given
[5]
  binding result: binds

B4: Octamer (dsDNA)
DNA 1: GGCGGCGGATGCAAATCGGCGGCGG
DNA 2: CCGCCGCCGATTTGCATCCGCCGCC
[6]
  binding result: no binding
[7]
  binding result: binds
[8]
  binding result: binds
[9]
  binding result: binds
[10]
  binding result: binds

B5: MORE (dsDNA)
DNA 1: TCCTCATGCATATGCATGAGGA
DNA 2: TCCTCATGCATATGCATGAGGA
[11]
  binding result: binds

B6: CpGpal unmethylated (dsDNA)
DNA 1: GCCGCCTTATGCGCATAAGCCGCCGC
DNA 2: GCGGCGGCTTATGCGCATAAGGCGGC
[12]
  binding result: binds
[13]
  binding result: binds
[2]; label: 5' Cy5 on forward strand
  binding result: binds
